This passage reports stoichiometry N results from PMC3655159.

The target in test [1] is HSV-1 gB ectodomain gB730 (residues 31-730) (HSV-1 (strain KOS)) (UniProt P06437). The test is described as follows: SDS-PAGE under mildly denaturing conditions + Western blot. In general terms: Immunoblotting shows a protein as a band on a membrane.
The target is the same in test [2]. As to the kind of experiment: SDS-PAGE under mildly denaturing conditions.

For “HSV-1 gB ectodomain gB730 (residues 31-730) (from UniProt P06437 31-730) (domain or fragment)”, the stoichiometry N in test [1] and in test [2] was 3 in each case.

The term stoichiometry N denotes a count of units in the complex or per binding partner.
